Data as given in patent US20220177587A1, “METHODS AND USES OF VARIANT CD80 FUSION PROTEINS AND RELATED CONSTRUCTS” (Alpine Immune Sciences, Inc., priority 2018, published 2022).

Assays:
CD28 (human) = CD28 (human) (UniProt P10747); experiment: flow cytometry, Jurkat cells (CD28)
PD-L1 (human) [1] = biological target: PD-L1 (human) (UniProt Q9NZQ7); experiment: flow cytometry, CHO cells stably expressing PD-L1
human CTLA-4 (human) [2] = biological target: human CTLA-4 (human) (UniProt P16410); experiment: flow cytometry, CHO cells stably expressing CTLA4
human CTLA-4 (human) [3] = biological target: human CTLA-4 (human) (UniProt P16410); experiment: flow cytometry, CHO cells expressing CTLA4
PD-L1 (human) [4] = biological target: PD-L1 (human) (UniProt Q9NZQ7); experiment: flow cytometry, CHO cells expressing PD-L1

human CTLA-4 (human), sequence (P16410 36-223): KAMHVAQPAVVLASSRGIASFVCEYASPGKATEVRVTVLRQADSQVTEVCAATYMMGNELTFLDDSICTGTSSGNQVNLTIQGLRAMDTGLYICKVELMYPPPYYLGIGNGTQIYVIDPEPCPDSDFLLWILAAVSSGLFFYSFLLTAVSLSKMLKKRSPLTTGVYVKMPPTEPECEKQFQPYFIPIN
PD-L1 (human), sequence (Q9NZQ7 19-290): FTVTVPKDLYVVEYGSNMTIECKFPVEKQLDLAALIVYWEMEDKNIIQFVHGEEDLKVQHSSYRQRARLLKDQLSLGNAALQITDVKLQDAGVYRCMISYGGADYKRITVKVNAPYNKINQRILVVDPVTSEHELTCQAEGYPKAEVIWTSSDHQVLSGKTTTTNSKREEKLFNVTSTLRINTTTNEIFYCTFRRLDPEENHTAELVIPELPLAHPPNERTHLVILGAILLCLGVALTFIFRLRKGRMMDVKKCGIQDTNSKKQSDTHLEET

MFI at 33.3 nM (human CTLA-4 (human) [3]) [MFI]	MFI at 33.3 nM (PD-L1 (human) [4]) [MFI]	MFI at 33.3 nM (CD28 (human)) [MFI]	Substance	further results
17000			CD80 E35D/D46E/M47I/T62A/V68M/L85M/Y87C IgV-Fc (Fc fusion)	
96	4620	14	CD80 E35D/D46E/M47L/V68M/T79M/L85M/L97Q IgV-Fc (Fc fusion)	Fold change to WT CD80 (PD-L1 (human) [4]): 89.7 fold; Fold change to WT CD80 (CD28 (human)): 0.5 fold
15500	1720		CD80 E35D/D46E/M47V/V68M/L85Q IgV-Fc (Fc fusion)	
		2110	CD80 E35D/M47V/N48K/V68M/K89N IgV-Fc, GS(G4S)3 linker (Fc fusion)	MFI at 33.3 nM (PD-L1 (human) [1]): 24200 MFI
13900	1720		CD80 E35D/M47V/V68M/L85M/Y87D IgV-Fc (Fc fusion)	
139	3590	16.7	CD80 H18Y/E35D/M38I/M47L/V68M/L85M IgV-Fc (Fc fusion)	Fold change to WT CD80 (PD-L1 (human) [4]): 69.7 fold; Fold change to WT CD80 (CD28 (human)): 0.5 fold
18400	23400	334	CD80 H18Y/E35D/M47L/Y53F/V68M/A71G/K93R/E95V IgV-Fc (Fc fusion)	Fold change to WT CD80 (human CTLA-4 (human) [3]): 10.5 fold
		15	CD80 IgV-Fc deltaE10-A98 (Fc fusion)	MFI at 33.3 nM (PD-L1 (human) [1]): 45 MFI; MFI at 33.3 nM (human CTLA-4 (human) [2]): 125 MFI
178	16500	15	CD80 Q27L/Q33L/E35D/T41S/M47V/N48K/V68M/L85M IgV-Fc (Fc fusion)	Fold change to WT CD80 (PD-L1 (human) [4]): 320 fold; Fold change to WT CD80 (CD28 (human)): 0.5 fold
91		16	CD80 R29C/E35D/M47L/V68M/A71G/L85M IgV-Fc (Fc fusion)	

Continued, substance first:

Substance	MFI at 33.3 nM (human CTLA-4 (human) [3]) [MFI]	MFI at 33.3 nM (PD-L1 (human) [4]) [MFI]	MFI at 33.3 nM (CD28 (human)) [MFI]	further results
CD80 (A91G/I118V/T120S/T130A) ECD-Fc (Fc fusion)				MFI at 66.7 nM (CD28 (human)): 720; MFI at 66.7 nM (PD-L1 (human) [1]): 107; EC50 (human CTLA-4 (human) [2]): 4.3 nM; MFI at 66.7 nM (human CTLA-4 (human) [2]): 24800
CD80 (E35D/D46E/M47V/V68M/D90G/K93E) ECD-Fc (Fc fusion)				MFI at 66.7 nM (PD-L1 (human) [1]): 287; EC50 (human CTLA-4 (human) [2]): 10.5 nM; MFI at 66.7 nM (human CTLA-4 (human) [2]): 24600
CD80 (E88D/K89R/D90K/A91G/F92Y/K93R) ECD-Fc (Fc fusion)				MFI at 66.7 nM (CD28 (human)): 4050; MFI at 66.7 nM (PD-L1 (human) [1]): 108; EC50 (human CTLA-4 (human) [2]): 3.6 nM; MFI at 66.7 nM (human CTLA-4 (human) [2]): 26400
CD80 (S21P/L70Q/D90G/I118V/T120S/T130A) ECD-Fc (Fc fusion)				MFI at 66.7 nM (CD28 (human)): 282; MFI at 66.7 nM (PD-L1 (human) [1]): 103; EC50 (human CTLA-4 (human) [2]): 8.8 nM
CD80 E35D/D46V/M47L/V68M/L85Q/E88D IgV-Fc, GS(G4S)3 linker (Fc fusion)			267	MFI at 33.3 nM (PD-L1 (human) [1]): 22600 MFI
CD80 E35D/M47V/N48K/V68M/K89N IgV-Fc, GS(G4S)5 linker (Fc fusion)				MFI at 33.3 nM (PD-L1 (human) [1]): 22700 MFI
CD80 E35D/M47V/V68M/L85M IgV-Fc (Fc fusion)	16000	9180	201	
CD80 H18Y/E35D/M47I/V68M/Y87N IgV-Fc (Fc fusion)	18600	15000	4040	
CD80 H18Y/E35D/M47L/V68M/A71G/L85M IgV-Fc (Fc fusion)	19500	18700		
CD80 H18Y/E35D/M47L/Y53F/V68M/A71G IgV-Fc (Fc fusion)	146	5100	15.7	Fold change to WT CD80 (PD-L1 (human) [4]): 99.1 fold; Fold change to WT CD80 (CD28 (human)): 0.5 fold
CD80 H18Y/E35D/V68M/A71G/R94Q/E95V IgV-Fc (Fc fusion)	18300	15000	16	
CD80 IgV-Fc E24D/Q27R/E35D/T41S/M47V/L85Q (Fc fusion)			66	MFI at 33.3 nM (PD-L1 (human) [1]): 2860 MFI; MFI at 33.3 nM (human CTLA-4 (human) [2]): 13900 MFI
CD80 IgV-Fc E35D/M47I/T62S/L85Q/E88D (Fc fusion)				MFI at 33.3 nM (PD-L1 (human) [1]): 8420 MFI; MFI at 33.3 nM (human CTLA-4 (human) [2]): 8910 MFI
CD80 IgV-Fc H18Y/E35D/M47I/V68M/A71G/R94L (Fc fusion)			1900	MFI at 33.3 nM (PD-L1 (human) [1]): 14500 MFI
CD80 IgV-Fc Q33R/M47V/T62N/A71G (Fc fusion)				MFI at 33.3 nM (PD-L1 (human) [1]): 12200 MFI; MFI at 33.3 nM (human CTLA-4 (human) [2]): 308 MFI
CD80 Q33L/E35D/M47V/T62S/V68M/L85M IgV-Fc (Fc fusion)	86		15	
CD80 Q33R/E35D/M38I/M47L/V68M IgV-Fc (Fc fusion)	107	16500	15	Fold change to WT CD80 (PD-L1 (human) [4]): 320 fold; Fold change to WT CD80 (CD28 (human)): 0.5 fold
CD80 S21P/E35D/K37E/D46E/M47I/V68M IgV-Fc (Fc fusion)	20600		540	
CD80 S21P/E35D/K37E/D46E/M47I/V68M/R94L IgV-Fc (Fc fusion)	20100		284	
